Data on twelve molecules can be found in patent publication US20090105116A1.

Assay [1] deals with T1, CaCdc42 (R150K), sNBD-labeled and GMPPCP-loaded (Candida albicans). Briefly: fluorescence titration of 1 µM sNBD-labeled, GMPPCP-loaded CaCdc42 (R150K).
The target of assay [2] is T1, CaCdc42 (R150K), sNBD-labeled and …. As to the kind of experiment: fluorescence titration of 1 µM sNBD-labeled, GMPPCP-loaded CaCdc42 (R150K) with the peptide [panel A].
Assay [3] deals with eCla4-SLAM. As to the kind of experiment: fluorescence titration of sNBD-CaCdc42 (R150K) with eCla4-SLAM in the presence of SAP-SH2 (competition; fit of the apparent Kd against SAP-SH2 concentration).
The target in assay [4] is T1, CaCdc42 (R150K), sNBD-labeled and …. As to the kind of experiment: fluorescence titration of 1 µM CaCdc42 (R150K) with eCla4-SLAM, no SAP-SH2.
For assay [5] the target is unchanged. Briefly: fluorescence cross-titration; cCst20 with mCst20 added, against cCst20 alone.
The target is the same in assay [6]. Briefly: fluorescence cross-titration of sNBD-labeled CaCdc42 (R150K) in the presence of 50 µM mCst20.
For assay [7] the target is unchanged. As to the kind of experiment: fluorescence cross-titration of sNBD-labeled CaCdc42 (R150K) in the presence of cCst20.
For assay [8] the target is unchanged. Briefly: fluorescence titration of 1 µM sNBD-labeled, GMPPCP-loaded CaCdc42 (R150K) with the peptide [panel B].
The target is the same in assay [9]. As to the kind of experiment: fluorescence cross-titration; mCst20 with cCst20 added, against mCst20 alone.
The target is the same in assay [10]. As to the kind of experiment: fluorescence cross-titration of sNBD-labeled CaCdc42 (R150K) in the presence of cCla4.
For assay [11] the target is unchanged. As to the kind of experiment: fluorescence cross-titration of sNBD-labeled CaCdc42 (R150K) in the presence of 50 µM mCla4.

VNIKISTPFNAKHLAHVGIDDNGSYTGLPIEWERLLSASGITKK (modifications not checked) [eCst20, P0CY24 469-512] displayed an equilibrium dissociation constant (Kd) in [1] of 0.046 µM. In [2], this molecule returned an EC50 (read off the curve) of 0.5 µM.

B1: SH2 domain from the SAP protein (protein)
chain: GSSHHHHHHSSFNPRGSDAVAVYHGKISRETGEKLLLATGLDGSYLLRDSESVPGVYCLCVLYHGYIYTYRVSQTETGSWSAETAPGVHKRYFRKIKNLISAFQKPDQGIVIPLQYPVEK
For B1, the Ki in [3] turned out to be 362 µM.
Consider GGNSGVSGPINFTHKVHVGFDPASGSYTGLPIEWERLLSASGIT (modifications not checked) [mCla4-cCst20], for which the Kd in assay [1] turned out to be 0.031 µM.

B2: eCla4-SLAM (peptide)
peptide: GGNSGFPGPINFTHKVHVGFDRKSLTIYAQVQKNFTGLPDTWKSLLQHSKIT
modifications: not checked
Take B2: in [4], the EC50 (read off the curve) stood at 0.7 µM. Moreover, the Kd in assay [1] was determined as 0.127 µM.
For the molecule GSYTGLPIEWERLLSASGITKK (modifications not checked) [cCst20, P0CY24 491-512], in assay [5], the fold enhancement in binding upon addition of the cognate peptide was 5.5 fold. Moreover, the Kd was determined as 1160 µM in assay [1] and 207 µM in assay [6].
For the molecule VNIKISTPFNAKHLAHVGIDDN (modifications not checked) [mCst20, P0CY24 469-490], the Kd was determined as 0.081 µM in assay [7] and 0.43 µM in [1]. The molecule also registered an EC50 (read off the curve) in [8] of 0.9 µM. The fold enhancement in binding upon addition of the cognate peptide in [9] came to 5.5 fold.
In turn, EVNIKISTPFNAKHLAHVGIDPDNGNFTGLPDTWKSLLQHSKIT (modifications not checked) [mCst20-P-cCla4] displayed a Kd in [1] of 0.093 µM.
Consider GNSGVSGPINFTHKVHVGFDPA (modifications not checked) [mCla4, O14427 227-248], for which the figures for the Kd in [1] and in [10] were 4.2 µM and 4.1 µM, respectively.
In [1], GGNSGVSGPINFTHKVHVGFDSGSGNFTGLPDTWKSLLQHSKIT (modifications not checked) [eCla4-SG, O14427 227-248; O14427 249-270] registered a Kd of 0.067 µM.
Turning to SGNFTGLPDTWKSLLQHSKITN (modifications not checked) [cCla4, O14427 249-270], the Kd turned out to be 275 µM in assay [1] and 311 µM in assay [11].
The molecule GNSGVSGPINFTHKVHVGFDPASGNFTGLPDTWKSLLQHSKITN (modifications not checked) [eCla4, O14427 227-270] yielded a Kd in [1] of 0.025 µM. The molecule also returned an EC50 (read off the curve) in [2] of 0.5 µM.
EVNIKISTPFNAKHLAHVGIDDNGNFTGLPDTWKSLLQHSKIT (modifications not checked) [mCst20-cCla4]: the Kd in assay [1] was 2.64 µM.

One may read the Kd as the concentration at which binding is half-saturated. What is called EC50 (read off the curve) is the midpoint of the concentration-response curve. A higher EC50 (read off the curve) goes with weaker potency.
